Laboratory results taken from PMC3756998, “Use of a Small Peptide Fragment as an Inhibitor of Insulin Fibrillation Process: A Study by High and Low Resolution Spectroscopy” (PLoS ONE, 2013).
Several values for one entry are separate records, joined by “and”; a condition that tells them apart may be missing. Equal entries are not always repeated. Entries after “also recorded” stand apart in the source; their conditions may differ. Where two headings read alike, the source gives them in different places. Ends that are not written are not given here.

Experiments:
[1] = test system: insulin; settings: literature, cited from earlier work
Description: These agents routed via natural source or synthetic pathways are generally termed as amyloid inhibitors. The idea behind such anti-amyloid agent is to inhibit the creation of amyloidogenic aggregate and/to arrest the amyloid construction.

[2] = test system: insulin fibrils; assay type: biochemical, bovine; settings: pH 2.6
[3] = biological target: T1, insulin (Bos taurus, UniProt P01317); assay type: biochemical, bovine; settings: pH 2.6
T1 construct: Insulin consists of two polypeptide chains (Chain A –21 residues; Chain B –30 residues) held together by two disulphide bonds; purchased Sigma (St. Louis, MO)

[4] = biological target: T1, insulin; assay type: biochemical, bovine; settings: pH 2.6; remark: listed apart in the source
[5] = biological target: T1, insulin; assay type: biochemical, bovine; settings: pH 2.6; remark: listed apart in the source
[6] = biological target: T1, insulin; assay type: biochemical, bovine
[7] = test system: HT1080 cells
[8] = biological target: T1, insulin; experiment: biochemical; assay type: binding, bovine; settings: apparent Kd
[9] = test system: human red blood cells; settings: red cells of human, 1 h, 250 µM

T1 sequence (P01317 25-54 limits assumed): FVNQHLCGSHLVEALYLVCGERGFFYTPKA
T1 sequence (P01317 85-105 limits assumed): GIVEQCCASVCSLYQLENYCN

Molecule: O=c1c(O)c(-c2ccc(O)c(O)c2)oc2cc(O)cc(O)c12 [quercetin]
- effect on insulin fibrillation (in words) ([1]; ref [45]–[46]): interfered with the dissociation of the oligomeric insulin to monomer and also destabilized preformed insulin fibril

Molecule: OCC(F)(F)F [trifluoroethanol]
- effect on insulin fibrillation (in words) ([1]; ref [23]): on binding with insulin trimer prevented the appearance of soluble oligomers; also recorded: could delay the fibrillation of insulin by interfering with the oligomer to monomer dissociation step

Molecule: Insulin: 51-residue protein hormone; bovine insulin, two chains held together by two disulphide bonds
- fibril morphology by TEM [2]: branched insulin fibrils
- hydrodynamic radius [3]: 2.0 nm
- size of insulin monomer formed [3]: 1.3 nm
- size of large oligomer [3]: 24 nm
- helix content of insulin (CD) [4]: 39%
- Apparent Rate Constant [5]: 2.9 ± 0.13 h⁻¹
- Lag Time [5]: 120 min and 120 ± 5 min
- cross beta structure formation / helix loss of insulin (FT-IR, in words) [6]: forms the cross beta structure indicative of fibrils beyond 2 h; also recorded: significant increases in the A1628/A1654 ratio was observed after 2 h of incubation
- β-sheet content of mature fibrils (FT-IR) [6]: ~60%

Molecule: NIVNVSLVK [NK9, NIVNVSLVK]
- cytotoxicity [7]: less than 5%
- Kd [8]: 2200 nM and 1200 nM
- hemolysis [9]: less than 0.5%

Molecule: Triton X 100 [reference compound]
- viability [7]: 20%
